The supplement of paper PMC12042874
± gives the uncertainty stated by the source.

assay: amyloid nucleation score (Sup35N fusion, yeast selection) (log enrichment); library NNK2; higher = more nucleation; inactive = no reads after selection
Method in brief: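 The nucleation score equals the log enrichment of output over input reads from DiMSum, centred on the mode score of non-aggregating sequences. It was computed only for sequences with 100 or more input reads. The reads came from Illumina sequencing of plasmid inserts from psi-negative yeast expressing Sup35N fused to peptides of 20 random codons, induced with 100 μM copper sulfate for 24 hours and grown 7 days at 30°C without adenine and uracil.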

Row | Substance | amyloid nucleation score
1 | QSKFDTFGSFACTYRYFTAN | 0.698 ± 0.8
2 | EAFNTSCLVFLRNDWYWSGF | inactive
3 | PGSMPRRMSRCWSIGLDGEE | 1.3 ± 0.32
4 | YYCFHLKEYCRWRSANPHFK | -0.073 ± 1
5 | CALFLFRKVLVLIT | -1.48 ± 0.55
6 | FGKVRESCCLLAY | 0.489 ± 0.3
7 | VPWLNGRVVASRKDKTRSSR | 0.009 ± 0.76
8 | YANERNTDFNNRWFLHGIKR | -1.34 ± 1.1
9 | QCLQCGP | -0.553 ± 0.49
10 | SWVLLAY | 0.45 ± 0.8
11 | NYMYGLNSVKSVGWLSDI | 0.069 ± 0.46
12 | IFSHFILCKQAAVCTVNEFR | 5.08 ± 0.072
13 | HHLLVRMSMCC | 4.49 ± 0.058
14 | NQVSIIHWWAAYDYWSPM | -0.163 ± 0.6
15 | LMKLNSTLSFDYFPLT | -0.166 ± 0.65
16 | MYRVLSIKWDRHLTRVHIAW | inactive
17 | VPTLCLVLDRLLDSNR | -1.39 ± 0.62
18 | DKLVRWHLGMLIGGRGSCLF | 0.294 ± 0.8
19 | FTCITIGVFELAQACPIYGG | 6.15 ± 0.071
20 | LLGQLKFLFLDVFLWLYVCS | 1.56 ± 0.22
21 | NPYIINLFCYKIVRLGAIFT | 4.14 ± 0.068
22 | DGFHLNALHLESRQLGVGFS | 3.87 ± 0.069

Row | Substance | amyloid nucleation score
23 | FFFFTNRVTKAVSYGYLMDD | -0.491 ± 0.63
24 | SVNSC | -0.654 ± 1
25 | NTLYSFVRGCKPRMEFNRVK | -0.965 ± 1
26 | FYFIIWNSLRPILRLSVAPV | -0.392 ± 0.61
27 | PCITLAFPVNKSRF | -0.363 ± 1.1
28 | YCYVSRVFYRMCALAGWMGL | inactive
29 | YALAAVSRFG | 0.22 ± 0.55
30 | DYVMYPGLVAMLSVSTPSQE | 0.477 ± 0.49
31 | YIWILWIAMEQNKSWRGQHD | 4.44 ± 0.12
32 | KNSGSMIRWIFIRGSTTIEK | inactive
33 | AIVYDH | -0.291 ± 0.63
34 | SHGPLR | 5.556 ± 0.053
35 | YRDVQNN | inactive
36 | CAVGDPYCSAMFMMNLWGEK | 9.547 ± 0.052
37 | LLIKSSCFCSLDVFFS | 3.69 ± 0.089
38 | RSYLVFYTRYLTFNGPSTKF | 7.79 ± 0.08
39 | SGWELRQITFGMTDCIGG | -0.328 ± 0.42
40 | ATMEGSAECVFTRDIKIFRH | inactive
41 | LIPLIVLGGTDSFKELYGYE | -0.624 ± 0.61
42 | YMLTIRFICFGAVGHSDMHE | 0.672 ± 0.18
43 | PIKCDRSFWRR | 1.49 ± 0.22
44 | FMVACHCCHTSCEYNFGNTV | 3.96 ± 0.13

Row | Substance | amyloid nucleation score
45 | TSIILGFFLMTTLQN | inactive
46 | AMGNKREKVL | 0.601 ± 0.44
47 | LQVAARHHL | inactive
48 | LCLRDFSFDGLVGSR | 0.119 ± 0.65
49 | EENGCS | 1.22 ± 0.24
50 | SLSRCALL | -0.789 ± 0.39
51 | IRIGFRMHCLVIQYMNCFIS | 2.18 ± 0.075
52 | DFMRELYFMGSRPFEMLYMY | 0.102 ± 0.77
53 | RVPGRDALSIASWLQSTGQV | 1.03 ± 0.21
54 | VCTWYRVAIDRRINIS | 1.96 ± 0.066
55 | NLWSSGKWLMCI | -0.292 ± 0.29
56 | FMARRNVAYILEYIIVYRF | -0.735 ± 0.64
57 | SMRTG | 0.448 ± 0.23
58 | MGHRFLLRRLSFIADLLV | -1.12 ± 1
59 | PCGSCMSQNKSIG | 0.167 ± 0.31
60 | AGKSTHLFLRAVVLLCGNPR | 0.05 ± 0.35
61 | NFSDWIYVFSEVPMLVRCRW | 0.261 ± 0.42
62 | RLLAGIFLEEKFYPRPSDIL | 3.69 ± 0.13
63 | FSVLAMAWSS | -0.226 ± 1.1
64 | NVYDRGVIGYMSNNVHTEGI | -1.07 ± 1.1
65 | LGFMNCSLMHAGRVGPREHF | 2.72 ± 0.13
66 | GVNARQGSHDLVLRIVR | 7.39 ± 0.075

Row | Substance | amyloid nucleation score
67 | ETPLTGLRNPSLNQCLMELM | 0.232 ± 0.5
68 | GVLGTLF | -1.13 ± 0.76
69 | KIVGCGHSRMLIMTWC | 0.733 ± 0.56
70 | WRNLDLK | -0.562 ± 1.1
71 | VLREDSIELWPDGTVGGRTG | 1.35 ± 0.37
72 | QYNKCSMALVFCYCS | 8.26 ± 0.038
73 | REFMNFWHWRVCICAQE | -0.501 ± 0.38
74 | RMRQASEAKSLGGPIGRQGL | 1.2 ± 0.15
75 | CARYLIEVRYKGKKIQYSM | -0.837 ± 0.39
76 | LHIMVFQYLKWHTAI | -0.07 ± 0.49
77 | CLWVSMDGHSFWRKFNAVI | inactive
78 | DNDRHNAVALRSSVIVLLGK | inactive
79 | SNSVCACCKCWLGLSLPYQG | 7.781 ± 0.046
80 | ITTHMCYVFMWREIRAKDVD | 0.484 ± 0.8
81 | QYLLIIMFRYYLYCGVQRNY | -0.121 ± 1.1
82 | WMLCLDLKANKMCLMVISME | -1.32 ± 0.76
83 | CVVRFRGPYKFCWPQDRSYS | 0.247 ± 0.8
84 | GFEGMSMADRKKGEVRAIWG | 0.755 ± 0.31
85 | VLESYFDTYM | -2 ± 0.76
86 | NSKTDSVHYYIDVLSPTHIF | -1.09 ± 0.78
